Assay results as given in patent US7118879.
Read-outs that look alike come from different tables or passages of the source.

What was measured:
[1] = biological target: human neutrophil elastase (immobilized on Reacti-Gel agarose beads, or free) (human) (UniProt P08246); assay: HNE beads, wash
[2] = biological target: human neutrophil elastase (immobilized on Reacti-Gel agarose beads, or free) (human) (UniProt P08246); assay: HNE beads, pH 2.0 eluate
[3] = biological target: human neutrophil elastase (immobilized on Reacti-Gel agarose beads, or free) (human) (UniProt P08246); assay: HNE beads, pH 2.5 eluate
[4] = biological target: human neutrophil elastase (immobilized on Reacti-Gel agarose beads, or free) (human) (UniProt P08246); assay: HNE beads, pH 3.0 eluate
[5] = biological target: human neutrophil elastase (immobilized on Reacti-Gel agarose beads, or free) (human) (UniProt P08246); assay: HNE beads, pH 3.5 eluate
[6] = biological target: human neutrophil elastase (immobilized on Reacti-Gel agarose beads, or free) (human) (UniProt P08246); assay: HNE beads, pH 4.0 eluate
[7] = biological target: human neutrophil elastase (immobilized on Reacti-Gel agarose beads, or free) (human) (UniProt P08246); assay: HNE beads, pH 4.5 eluate
[8] = biological target: human neutrophil elastase (immobilized on Reacti-Gel agarose beads, or free) (human) (UniProt P08246); assay: HNE beads, pH 5.0 eluate
[9] = biological target: human neutrophil elastase (immobilized on Reacti-Gel agarose beads, or free) (human) (UniProt P08246); assay: HNE beads, pH 5.5 eluate
[10] = biological target: human neutrophil elastase (immobilized on Reacti-Gel agarose beads, or free) (human) (UniProt P08246); assay: HNE beads, pH 6.0 eluate
[11] = biological target: human neutrophil elastase (immobilized on Reacti-Gel agarose beads, or free) (human) (UniProt P08246); assay: HNE beads, pH 7.0 eluate
[12] = biological target: human neutrophil elastase (immobilized on Reacti-Gel agarose beads, or free) (human) (UniProt P08246); assay: HNE beads, pH 2.0 eluate; remark: listed apart in the source
[13] = biological target: human neutrophil elastase (immobilized on Reacti-Gel agarose beads, or free) (human) (UniProt P08246); assay: HNE beads, pH 3.5 eluate; remark: listed apart in the source
[14] = biological target: human neutrophil elastase (immobilized on Reacti-Gel agarose beads, or free) (human) (UniProt P08246); assay: HNE beads, pH 7.0 eluate; remark: listed apart in the source
[15] = biological target: human neutrophil elastase (immobilized on Reacti-Gel agarose beads, or free) (human) (UniProt P08246); assay: HNE beads, pH 2.0 eluate; remark: listed apart in the source
[16] = biological target: human neutrophil elastase (immobilized on Reacti-Gel agarose beads, or free) (human) (UniProt P08246); assay: HNE beads, pH 2.5 eluate; remark: listed apart in the source
[17] = biological target: human neutrophil elastase (immobilized on Reacti-Gel agarose beads, or free) (human) (UniProt P08246); assay: HNE beads, pH 3.0 eluate; remark: listed apart in the source
[18] = biological target: human neutrophil elastase (immobilized on Reacti-Gel agarose beads, or free) (human) (UniProt P08246); assay: HNE beads, pH 3.5 eluate; remark: listed apart in the source
[19] = biological target: human neutrophil elastase (immobilized on Reacti-Gel agarose beads, or free) (human) (UniProt P08246); assay: HNE beads, pH 4.0 eluate; remark: listed apart in the source
[20] = biological target: human neutrophil elastase (immobilized on Reacti-Gel agarose beads, or free) (human) (UniProt P08246); assay: HNE beads, pH 4.5 eluate; remark: listed apart in the source
[21] = biological target: human neutrophil elastase (immobilized on Reacti-Gel agarose beads, or free) (human) (UniProt P08246); assay: HNE beads, pH 5.0 eluate; remark: listed apart in the source
[22] = biological target: human neutrophil elastase (immobilized on Reacti-Gel agarose beads, or free) (human) (UniProt P08246); assay: HNE beads, pH 5.5 eluate; remark: listed apart in the source
[23] = biological target: human neutrophil elastase (immobilized on Reacti-Gel agarose beads, or free) (human) (UniProt P08246); assay: HNE beads, pH 6.0 eluate; remark: listed apart in the source
[24] = biological target: human neutrophil elastase (immobilized on Reacti-Gel agarose beads, or free) (human) (UniProt P08246); assay: HNE beads, pH 7.0 eluate; remark: listed apart in the source
[25] = biological target: human neutrophil elastase (immobilized on Reacti-Gel agarose beads, or free) (human) (UniProt P08246); assay: HNE beads, all pH eluates
[26] = biological target: human neutrophil elastase (immobilized on Reacti-Gel agarose beads, or free) (human) (UniProt P08246); assay: HNE beads, all pH eluates; remark: listed apart in the source
[27] = biological target: human neutrophil elastase (immobilized on Reacti-Gel agarose beads, or free) (human) (UniProt P08246); assay: HNE beads, all pH eluates; remark: listed apart in the source
[28] = biological target: human neutrophil elastase (immobilized on Reacti-Gel agarose beads, or free) (human) (UniProt P08246); assay: HNE beads, final TBS-TWEEN wash
[29] = biological target: human neutrophil elastase (immobilized on Reacti-Gel agarose beads, or free) (human) (UniProt P08246); assay: pH elution of phage from HNE beads
[30] = biological target: human neutrophil elastase (immobilized on Reacti-Gel agarose beads, or free) (human) (UniProt P08246); assay: pH elution of clonal phage from HNE beads (FIG. 9)
[31] = biological target: human neutrophil elastase (immobilized on Reacti-Gel agarose beads, or free) (human) (UniProt P08246); assay: HNE beads
[32] = biological target: trypsin (active, immobilized on beads, or in solution) (UniProt P00760); assay: trypsin beads
Sequence of trypsin (active, immobilized on beads, or in solution) (P00760 24-246): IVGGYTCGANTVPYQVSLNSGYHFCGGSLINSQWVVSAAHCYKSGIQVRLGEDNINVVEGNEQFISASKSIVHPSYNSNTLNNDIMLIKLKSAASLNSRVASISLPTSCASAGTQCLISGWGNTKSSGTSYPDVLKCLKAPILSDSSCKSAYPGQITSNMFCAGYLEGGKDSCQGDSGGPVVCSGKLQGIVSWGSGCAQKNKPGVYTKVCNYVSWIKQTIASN

[33] = biological target: anhydro-trypsin (agarose-immobilized) (UniProt P00760); assay: anhydrotrypsin beads
[34] = biological target: trypsin (active, immobilized on beads, or in solution) (UniProt P00760); assay: eluted from trypsin beads
[35] = biological target: human neutrophil elastase (immobilized on Reacti-Gel agarose beads, or free) (human) (UniProt P08246); assay: acid-eluted from HNE beads
[36] = biological target: trypsin (active, immobilized on beads, or in solution) (UniProt P00760); assay: acid-eluted from trypsin beads
[37] = biological target: anhydro-trypsin (agarose-immobilized) (UniProt P00760); assay: titer after anhydrotrypsin beads
[38] = biological target: anhydro-trypsin (agarose-immobilized) (UniProt P00760); assay: eluted from anhydrotrypsin beads
[39] = biological target: protein A (agarose beads) (UniProt P38507); assay: titer after protein A beads alone
[40] = biological target: anhydro-trypsin (agarose-immobilized) (UniProt P00760); assay: anhydrotrypsin beads, experiment 1
[41] = biological target: anhydro-trypsin (agarose-immobilized) (UniProt P00760); assay: anhydrotrypsin beads, experiment 2
[42] = biological target: anhydro-trypsin (agarose-immobilized) (UniProt P00760); assay: acid-eluted from anhydrotrypsin beads, experiment 1
[43] = biological target: anhydro-trypsin (agarose-immobilized) (UniProt P00760); assay: acid-eluted from anhydrotrypsin beads, experiment 2

Sequence of human neutrophil elastase (immobilized on Reacti-Gel agarose beads, or free) (human) (P08246 30-247 limits assumed): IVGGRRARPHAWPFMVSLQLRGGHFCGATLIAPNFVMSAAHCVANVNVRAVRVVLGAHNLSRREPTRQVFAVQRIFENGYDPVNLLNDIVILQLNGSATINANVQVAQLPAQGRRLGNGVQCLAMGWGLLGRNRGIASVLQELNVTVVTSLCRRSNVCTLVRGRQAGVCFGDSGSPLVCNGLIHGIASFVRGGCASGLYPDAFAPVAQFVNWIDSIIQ

EpiNE7 phage (designed binder) showed a fraction of input [1] of 6e-05, a fraction of input [2] of 9.1e-05 and a total pfu in sample [2] of 300000 pfu. The fraction of input [3] was 4.8e-05, the total pfu in sample [3] was 160000 pfu and the fraction of input [4] was 0.0002. It also gave a total pfu in sample [4] of 660000 pfu, a fraction of input [5] of 0.00029 and a total pfu in sample [5] of 950000 pfu. The fraction of input [6] was 0.00048, the total pfu in sample [6] was 1.6e+06 pfu and the fraction of input [7] was 0.00035. For the same substance, the total pfu in sample [7] was 1.2e+06 pfu, the fraction of input [8] was 0.00029 and the total pfu in sample [8] was 950000 pfu. It also gave a fraction of input [9] of 0.00028, a total pfu in sample [9] of 940000 pfu and a fraction of input [10] of 0.00041. The total pfu in sample [10] was 1.4e+06 pfu, the fraction of input [11] was 0.00018 and the total pfu in sample [11] was 620000 pfu. The fraction of input [12] was 0.001, the fraction of input [13] was 0.003 and the fraction of input [14] was 0.0003. The fraction of input [15] was 0.00016, the total pfu in sample [15] was 290000 pfu and the fraction of input [16] was 0.00016. It also gave a total pfu in sample [16] of 280000 pfu, a fraction of input [17] of 0.00021 and a total pfu in sample [17] of 380000 pfu. It also gave a fraction of input [18] of 0.00061, a total pfu in sample [18] of 1.1e+06 pfu and a fraction of input [19] of 0.00094. The total pfu in sample [19] was 1.7e+06 pfu, the fraction of input [20] was 0.00061 and the total pfu in sample [20] was 1.1e+06 pfu. It also gave a fraction of input [21] of 0.00047, a total pfu in sample [21] of 840000 pfu and a fraction of input [22] of 0.00043. For the same substance, the total pfu in sample [22] was 780000 pfu, the fraction of input [23] was 0.00036 and the total pfu in sample [23] was 640000 pfu. For the same substance, the fraction of input [24] was 0.00029, the total pfu in sample [24] was 520000 pfu and the fraction of input, SUM of pH elution fractions [25] was 0.003. It also gave a total pfu, SUM of pH elution fractions [25] of 6.4e+06 pfu, a fraction of input, SUM of pH elution fractions [26] of 0.0043 and a fraction of input, SUM of pH elution fractions [27] of 0.0041. It also gave a total pfu, SUM of pH elution fractions [27] of 7.6e+06 pfu, a fraction of input [28] of 0.00012 and a total pfu in sample [28] of 380000 pfu. For the same substance, the pH of elution peak [29] was 3.5 pH and the pH of elution peak [30] was 3.5 pH.

Work on “M13mp18 phage (wild type, non-display phage)” yielded a relative binding (to M13MP18) [31] of 1 fold, a relative binding (to M13MP18) [32] of 1 fold and a relative binding (to M13MP18) [33] of 1 fold. For the same substance, the eluted phage, % of input [34] was 0.00023%, the eluted phage, % of input [35] was 0.0003% and the eluted phage, % of input [36] was 0.0005%. It also gave a % of input pfu post incubation [37] of 121%, an eluted phage, % of input [38] of 0.1% and a % of input pfu [39] of 72%. For the same substance, the binding relative to M13MP18 [40] was 1 fold, the binding relative to M13mp18 [41] was 1 fold and the eluted phage, % of input [42] was 0.2%. For the same substance, the eluted phage, % of input [43] was 0.3%.
